The values that follow come from publication PMC6826200.

First the molecules themselves.
B1: wild-type FICD (amino acid residues 104-445) [human] / itself (parent)
chain: LEARAALNQALEMKRQGKREKAQKLFMHALKMDPDFVDALTEFGIFSEEDKDIIQADYLYTRALTISPYHEKALVNRDRTLPLVEEIDQRYFSIIDSKVKKVMSIPKGNSALRRVMEETYYHHIYHTVAIEGNTLTLSEIRHILETRYAVPGKSLEEQNEVIGMHAAMKYINTTLVSRIGSVTISDVLEIHRRVLGYVDPVEAGRFRTTQVLVGHHIPPHPQDVEKQMQEFVQWLNSEEAMNLHPVEFAALAHYKLVYIHPFIDGNGRTSRLLMNLILMQAGYPPITIRKEQRSDYYHVLEAANEGDVRPFIRFIAKCTETTLDTLLFATTEYSVALPEAQP

In this test the parent is B1. The test can be described thus: size-exclusion chromatography (peak elution time vs protein concentration, monomer-dimer association fit). The following applies: with itself; non-oxidised protein; parent: 55 nM.
One may read the Kd as the free concentration of one partner at which half of the binding sites on the other are occupied at equilibrium, for simple one-to-one binding. Consider chain 1 A149C C318S, for which the Kd was 831 nM.
